Common to all, as to details: modification not given
In assay [1] the target is V1aR (Homo sapiens), P37288. Nature of the assay: radioligand displacement. (In a radioligand displacement assay an active substance lowers the binding of a labelled ligand.)
For assay [2], the target named is T1, OTR (Homo sapiens), P30559.
T1 chain: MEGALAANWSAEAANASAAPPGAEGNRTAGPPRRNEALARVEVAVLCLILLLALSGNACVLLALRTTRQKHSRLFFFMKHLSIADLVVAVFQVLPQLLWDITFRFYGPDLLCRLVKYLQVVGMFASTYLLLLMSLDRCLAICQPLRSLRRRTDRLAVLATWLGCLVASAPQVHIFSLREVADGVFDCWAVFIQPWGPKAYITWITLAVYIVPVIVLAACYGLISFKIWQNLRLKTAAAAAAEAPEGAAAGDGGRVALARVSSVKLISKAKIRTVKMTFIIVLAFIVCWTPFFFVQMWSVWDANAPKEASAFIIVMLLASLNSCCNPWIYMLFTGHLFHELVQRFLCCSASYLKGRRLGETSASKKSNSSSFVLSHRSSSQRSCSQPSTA
The experiment in a line: radioligand displacement.

The target in assay [3] is T2, V1bR (Homo sapiens), P47901.
T2 chain: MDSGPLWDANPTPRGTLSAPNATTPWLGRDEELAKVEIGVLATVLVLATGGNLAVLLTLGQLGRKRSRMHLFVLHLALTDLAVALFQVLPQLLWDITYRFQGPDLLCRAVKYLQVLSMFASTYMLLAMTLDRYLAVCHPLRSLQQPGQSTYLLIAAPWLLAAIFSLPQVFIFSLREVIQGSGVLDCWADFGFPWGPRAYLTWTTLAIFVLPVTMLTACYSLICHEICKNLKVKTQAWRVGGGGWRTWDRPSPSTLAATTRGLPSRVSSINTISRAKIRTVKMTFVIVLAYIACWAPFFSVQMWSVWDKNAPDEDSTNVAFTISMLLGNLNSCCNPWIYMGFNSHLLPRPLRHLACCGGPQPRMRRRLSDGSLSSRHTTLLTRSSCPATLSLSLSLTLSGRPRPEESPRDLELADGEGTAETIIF
The experiment in a line: radioligand displacement.

The target in assay [4] is V2R (Homo sapiens), P30518. The experiment in a line: radioligand.

In general, Ki refers to the dissociation constant of the complex between target and ligand, obtained from inhibition or displacement. The low end stands for higher affinity, the high end for lower affinity.

Some results are limits rather than exact numbers.

V1aR (Homo sapiens), P37288, sequence (P37288 whole entry): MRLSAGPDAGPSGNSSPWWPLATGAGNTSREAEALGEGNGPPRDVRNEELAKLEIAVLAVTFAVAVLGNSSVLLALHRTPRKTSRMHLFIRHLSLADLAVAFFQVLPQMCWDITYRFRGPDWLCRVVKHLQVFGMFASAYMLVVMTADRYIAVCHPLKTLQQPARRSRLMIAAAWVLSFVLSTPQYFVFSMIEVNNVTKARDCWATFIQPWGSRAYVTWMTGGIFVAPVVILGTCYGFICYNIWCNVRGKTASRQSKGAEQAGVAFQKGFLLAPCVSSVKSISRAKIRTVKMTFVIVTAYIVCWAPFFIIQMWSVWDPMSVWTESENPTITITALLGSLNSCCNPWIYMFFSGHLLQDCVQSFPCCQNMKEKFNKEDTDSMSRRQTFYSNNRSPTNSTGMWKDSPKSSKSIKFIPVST

B1: inotocin (peptide)
chain: CLITNCPRG
Turning to B1, the Ki in assay [1] is 11 nM; in assay [2] it was 62 nM; in assay [3], 12 nM; in assay [4], over 100000 nM.

Source of the values: publication PMC5286520.
